Numbering of substitutions follows the chain as printed. Values belong to the molecule of their own block, whether it stands above or below them.
Assays:
Calu3 tumor model = test: Calu3 xenograft after chemotherapy: tumor response and NRG1 expression in residual tumor cells (qPCR); type: in vivo, human
Description: (§1) RNA was isolated using the Qiagen RNeasy Micro Kit, Complementary DNA was prepared from total RNA using ABI high fidelity kit according to manufacturer's instructions. NRG1alpha, NRG1beta, HER3, HER4 expression was determined using ABI gene specific primers/probe by quantitative real time PCR (ABI 7500). Gene expression was normalized using GAPDH or RAB14 house keeping genes.
(§2) Tumor cells (10-20 million) were transplanted into right flank of athymic nude mice. When tumor size reached ˜200 mm^3, the mice were divided into different treatment groups. Mice were then treated with either vehicle or chemotherapy (paclitaxel, i.v.+cisplatin, i.p.) for the initial studies. The chemotherapy dosing regimen was paclitaxel 20 mg/kg i.v. every other day for 5 doses and cisplatin 5 mg/kg i.p. on days 1 and 7 for the Calu3 model and days 1 and 14 for the H441 model. Regressed tumors and time matched vehicle controls were collected at least 1 week after the last dose of chemo. Tumors were dissociated using dispase/collagenase and samples were FACS sorted to collect the GFP positive tumor cells. For the NRG1 knockdown studies, the treatment groups were: sucrose, doxycycline (dox), chemotherapy+sucrose, and chemotherapy+doxycycline. […]
(§3) The expression of NRG1 in TRICs isolated from the Calu3 and H441 xenograft models was analyzed. […]

H441 tumor model = test: H441 xenograft after chemotherapy: tumor response and NRG1 expression in residual tumor cells (qPCR); type: in vivo, human
Description: as §1, §2, §3

[1] = target: T1, Recombinant human NRG1-β ECD domain (R&D Systems, cat#377-HB/CF) (human, UniProt Q02297-11 121-191, limits assumed); test: SPR (BIAcore T100), IgG captured by anti-human Fc, NRG1β injected; sensorgram shown for 6.25 nM NRG-beta
T1 construct: also called NRG1-beta; HRG1β
T1 sequence: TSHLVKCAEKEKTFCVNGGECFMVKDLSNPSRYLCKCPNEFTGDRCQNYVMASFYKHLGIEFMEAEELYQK
Description: (§4) Binding affinities of anti-NRG1 IgGs were measured by Surface Plasmon Resonance (SRP) using a BIAcore™-T100 instrument. Anti-NRG1 human IgGs were captured by mouse anti-human Fc antibody (GE Healthcare, cat# BR-1008-39) coated on CM5 biosensor chips to achieve approximately 1000 response units (RU). […] Association rates (kₒₙ) and dissociation rates (koff) were calculated using a simple one-to-one Langmuir binding model (BIAcore Evaluation Software version 3.2). The equilibrium dissociation constant (KD) was calculated as the ratio koff/kₒₙ.

[2] = target: T2, Recombinant human NRG1-α EGF domain (R&D Systems, cat#296-HR/CF) (human, UniProt Q02297 177-241); test: cell-based or functional assay
T2 sequence: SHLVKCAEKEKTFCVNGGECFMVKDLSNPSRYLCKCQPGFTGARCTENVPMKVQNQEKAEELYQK

[3] = target: T3, Recombinant human Neuregulin 1-beta (rhNRG1b, Genentech) (human, UniProt Q02297 1-640); test: cell-based or functional assay
T3 sequence: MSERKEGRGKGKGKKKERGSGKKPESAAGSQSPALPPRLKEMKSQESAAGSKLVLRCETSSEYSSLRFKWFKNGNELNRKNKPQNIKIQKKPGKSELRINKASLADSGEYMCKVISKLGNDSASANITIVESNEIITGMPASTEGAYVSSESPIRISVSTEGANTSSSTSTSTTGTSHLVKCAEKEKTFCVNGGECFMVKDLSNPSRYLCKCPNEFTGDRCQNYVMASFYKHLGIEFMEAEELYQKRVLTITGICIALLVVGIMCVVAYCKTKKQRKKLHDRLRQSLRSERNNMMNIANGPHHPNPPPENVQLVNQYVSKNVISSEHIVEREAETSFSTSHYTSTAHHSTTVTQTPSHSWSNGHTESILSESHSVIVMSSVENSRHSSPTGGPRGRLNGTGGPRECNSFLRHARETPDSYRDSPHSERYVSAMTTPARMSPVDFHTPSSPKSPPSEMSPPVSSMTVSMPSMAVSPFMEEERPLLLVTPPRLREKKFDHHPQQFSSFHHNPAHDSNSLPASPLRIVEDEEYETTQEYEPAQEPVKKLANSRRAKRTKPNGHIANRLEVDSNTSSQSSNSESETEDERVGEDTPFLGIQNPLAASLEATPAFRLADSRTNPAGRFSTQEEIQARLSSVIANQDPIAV

EGF = EGF (UniProt P01133 971-1023); test: ELISA
Chain of EGF (P01133 971-1023 limits assumed): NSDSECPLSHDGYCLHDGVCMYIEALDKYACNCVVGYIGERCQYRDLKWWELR

HB-EGF = HB-EGF (UniProt Q99075 63-148, limits assumed); test: ELISA
Chain of HB-EGF (Q99075 63-148 limits assumed): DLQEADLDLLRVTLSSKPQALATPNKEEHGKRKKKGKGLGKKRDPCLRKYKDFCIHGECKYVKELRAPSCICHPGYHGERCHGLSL

Betacellulin (BTC) = target: T4, Betacellulin (BTC) (UniProt P35070 32-111); test: ELISA
T4 sequence (looked up): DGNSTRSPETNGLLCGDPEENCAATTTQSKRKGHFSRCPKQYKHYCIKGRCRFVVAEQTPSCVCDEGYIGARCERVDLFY

[4] = target: T2, Recombinant human NRG1-α EGF domain …; test: SPR (BIAcore T100), IgG captured by anti-human Fc, NRG1α injected; sensorgram shown for 6.25 nM NRG-alpha
Description: as §4

[5] = target: T2, Recombinant human NRG1-α EGF domain …; test: SPR (BIAcore T100), IgG captured by anti-human Fc, NRG1α injected; table under the head '250 nM NRG1-alpha'
Description: as §4

[6] = target: T1, Recombinant human NRG1-β ECD domain …; test: SPR (BIAcore T100), IgG captured by anti-human Fc; table under the head '125nM NRG-beta'; this table is identical to that of FIG. 9 (NRG1-alpha) and does not fit the slow dissociation of the sensorgrams above it
[7] = target: T2, Recombinant human NRG1-α EGF domain …; test: SPR (BIAcore T100), IgG captured by anti-human Fc, NRG1α (HRG-alpha) injected; sensorgram shown for 7.8 nM (sheet: '7.8 mnM HRG alpha')
Description: as §4

[8] = target: T1, Recombinant human NRG1-β ECD domain …; test: SPR (BIAcore T100), IgG captured by anti-human Fc, NRG1β (HRG-beta) injected; sensorgram shown for 7.8 nM (sheet: '7.8 mnM HRG beta')
Description: as §4

- Kd [1]: 1.09 nM
- koff [1]: 0.000367 s⁻¹
- kon [1]: 337000 M⁻¹ s⁻¹
- IC50 of inhibition of Her3 activation (phosphorylation), KIRA on MCF-7 cells, 0.5 nM rhNRG1a [2]: 13.9 nM
- IC50 of inhibition of Her3 activation (phosphorylation), KIRA on MCF-7 cells, 0.2 nM rhNRG1b [3]: 1.44 nM
- binding result (EGF): no binding
- binding result (HB-EGF): no binding
- binding result (Betacellulin (BTC)): no binding
- Kd [4]: 0.587 nM
- koff [4]: 0.000595 s⁻¹
- kon [4]: 1.01e+06 M⁻¹ s⁻¹
B1: anti-NRG1 antibody 526.90.28 (antibody, human IgG1, kappa, V domains shown)
VH: EVQLVESGGGLVQPGGSLRLSCAASGFTFSDIAMSWVRQAPGKGLEWVSWIYPSGGNTYYADSVKGRFTISADTSKNTAYLQMNSLRAEDTAVYYCARSYILSQKSATWAFDYWGQGTLVTVSS
VL: DIQMTQSPSSLSASVGDRVTITCRASQSISSYLAWYQQKPGKAPKLLIYGASSRASGVPSRFSGSGSGTDFTLTISSLQPEDFATYYCQQSYSTPITFGQGTKVEIKR
notes: also called YW526.90.28

- Kd [5]: 13.2 nM
- koff [5]: 0.0252 s⁻¹
- kon [5]: 1.91e+06 M⁻¹ s⁻¹
- Kd [6]: 13.2 nM
- koff [6]: 0.0252 s⁻¹
- kon [6]: 1.91e+06 M⁻¹ s⁻¹
B3: anti-NRG1 antibody 538.24.36 (antibody, human IgG1, V domains shown)
VH: EVQLVESGGGLVQPGGSLRLSCAASGFTFSGTWIHWVRQAPGKGLEWVAAITPADGSTNYADSVKGRFTISADTSKNTAYLQMNSLRAEDTAVYYCATYMFAMDYWGQGTLVTVSS
VL: DIQMTQSPSSLSASVGDRVTITCRASQNVDRSLAWYQQKPGKAPKLLIYAASSLESGVPSRFSGSGSGTDFTLTISSLQPEDFATYYCQQHYTLPFTFGQGTKVEIKR
notes: also called YW538.24.36

- Kd [5]: 5.18 nM
- koff [5]: 0.0081 s⁻¹
- kon [5]: 1.56e+06 M⁻¹ s⁻¹
- Kd [6]: 5.18 nM
- koff [6]: 0.0081 s⁻¹
- kon [6]: 1.56e+06 M⁻¹ s⁻¹
B4: anti-NRG1 antibody 538.24.17 (antibody, human IgG1, V domains shown)
VH: B3 VH
VL: DIQMTQSPSSLSASVGDRVTITCRASQDVSTAVAWYQQKPGKAPKLLIYSASFLYSGVPSRFSGSGSGTDFTLTISSLQPEDFATYYCQQSYWMPPTFGQGTKVEIKR
notes: also called YW538.24.17

- Kd [7]: 1.74 nM
- koff [7]: 0.00674 s⁻¹
- kon [7]: 3.87e+06 M⁻¹ s⁻¹
- Kd [8]: 0.109 nM
- koff [8]: 7.34e-05 s⁻¹
- kon [8]: 674000 M⁻¹ s⁻¹
- Kd [6]: 1.96 nM
- kon [6]: 480000 M⁻¹ s⁻¹
B5: anti-NRG1 antibody 538.24.94 (antibody, human IgG1, V domains shown)
VH: B3 VH
VL: B3 VL with N28D, D30K, R31K, A50G, S53N, F96L
notes: also called YW538.24.94

The remaining lines, values behind:

Molecule: Nc1ccn([C@@H]2O[C@H](CO)[C@@H](O)C2(F)F)c(=O)n1 [gemcitabine]
- tumor response to treatment (Calu3 tumor model): tumor regression
- tumor response to treatment (H441 tumor model): tumor regression

Molecule: CCC1=C[C@@H]2CN(C1)Cc1c([nH]c3ccccc13)[C@@](C(=O)OC)(c1cc3c(cc1OC)N(C)[C@H]1[C@@](O)(C(=O)OC)[C@H](OC(C)=O)[C@]4(CC)C=CCN5CC[C@]31[C@@H]54)C2 [vinorelbine]
- tumor response to treatment (Calu3 tumor model): continued to grow
- tumor response to treatment (H441 tumor model): continued to grow

B2: anti-NRG1 antibody 538.24 (antibody, human IgG1, V domains shown)
VH: B3 VH
VL: B4 VL with W93T, M94T
notes: also called YW538.24
- Kd [5]: > 400 nM

From patent publication US20140363438A1, “NEUREGULIN ANTIBODIES AND USES THEREOF” (Genentech, Inc., priority 2011, published 2014)
